# Measured values taken from article PMC3172369 (Biochemistry, 2011).
# B1: human Npm2-core domain (T15-E122) (domain or fragment, UniProt Q86SE8 15-122, looked up)
# chain: TTVLWGCELSQERRTWTFRPQLEGKQSCRLLLHTICLGEKAKEEMHRVEILPPANQEDKKMQPVTIASLQASVLPMVSMVGVQLSPPVTFQLRAGSGPVFLSGQERYE
# B2: Np-core labelled at Cys41 with a DyLight dye (domain or fragment, Xenopus laevis, UniProt P05221 11-124, looked up)
# chain: LEKPVSLIWGCELNEQDKTFEFKVEDDEEKCEHQLALRTVCLGDKAKDEFNIVEIVTQEEGAEKSVPIATLKPSILPMATMVGIELTPPVTFRLKAGSGPLYISGQHVAMEEDY
# modifications: DyLight 549-maleimide or DyLight 649-maleimide on Cys41
# Experiments:
# crystal structure = target: the molecule itself; assay: crystal structure
# native gel or EMSA = target: the molecule itself; assay: native gel or EMSA
Protein,stoichiometry N (crystal structure),stoichiometry N (native gel or EMSA)
B1,5,–
B2,–,5
